Among the data in US20050074826A1 (published 2005) are binding result and IC50 values, retold here.

B2: CCX-CKR2, mouse (on E13 fetal liver cells) (receptor, UniProt P56485 1-362, looked up)
chain: MDVHLFDYAEPGNYSDINWPCNSSDCIVVDTVQCPTMPNKNVLLYTLSFIYIFIFVIGMIANSVVVWVNIQAKTTGYDTHCYILNLAIADLWVVITIPVWVVSLVQHNQWPMGELTCKITHLIFSINLFGSIFFLACMSVDRYLSITYFTGTSSYKKKMVRRVVCILVWLLAFFVSLPDTYYLKTVTSASNNETYCRSFYPEHSIKEWLIGMELVSVILGFAVPFTIIAIFYFLLARAMSASGDQEKHSSRKIIFSYVVVFLVCWLPYHFVVLLDIFSILHYIPFTCQLENVLFTALHVTQCLSLVHCCVNPVLYSFINRNYRYELMKAFIFKYSAKTGLTKLIDASRVSETEYSALEQNTK
notes: whole, on cells; also called SDF-1 receptor on E13 fetal liver cells
B3: CXCR4, human (receptor, UniProt P61073 1-352, looked up)
chain: MEGISIYTSDNYTEEMGSGDYDSMKEPCFREENANFNKIFLPTIYSIIFLTGIVGNGLVILVMGYQKKLRSMTDKYRLHLSVADLLFVITLPFWAVDAVANWYFGNFLCKAVHVIYTVNLYSSVLILAFISLDRYLAIVHATNSQRPRKLLAEKVVYVGVWIPALLLTIPDFIFANVSEADDRYICDRFYPNDLWVVVFQFQHIMVGLILPGIVILSCYCIIISKLSHSKGHQKRKALKTTVILILAFFACWLPYYIGISIDSFILLEIIKQGCEFENTVHKWISITEALAFFHCCLNPILYAFLGAKFKTSAQHALTSVSRGSSLKILSKGKRGGHSSVSTESESSSFHSS
notes: whole, on cells; also called CXCR4 on CEM-NKr cells; leukocyte CXCR4

Assay [1] has as its target B2. As to the kind of experiment: competition with radiolabeled human SDF-1 on mouse E13 fetal liver cells.
Assay [2] deals with T1, human SDF-1α (human, UniProt P48061-2 22-89).
T1 construct: also called hSDF-1α; SDF-1a
T1 sequence (P48061 22-89 limits assumed): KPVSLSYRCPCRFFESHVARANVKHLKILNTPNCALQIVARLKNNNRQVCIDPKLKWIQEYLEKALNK
The assay can be described thus: radioligand binding on mouse E13 fetal liver cells.

The target in assay [3] is T1, human SDF-1α. The assay can be described thus: DisplaceMax displacement of 125I SDF-1α on CEM-NKr cells (CXCR4). A general note: In a radioligand displacement assay an active substance lowers the binding of a labelled ligand.
For assay [4], the target named is T2, CCX-CKR2 (RDC1), human (human, UniProt P25106 1-362).
T2 construct: also called CCX-CR2; SDF1 receptor on MCF-7 cells
T2 sequence (P25106 whole entry): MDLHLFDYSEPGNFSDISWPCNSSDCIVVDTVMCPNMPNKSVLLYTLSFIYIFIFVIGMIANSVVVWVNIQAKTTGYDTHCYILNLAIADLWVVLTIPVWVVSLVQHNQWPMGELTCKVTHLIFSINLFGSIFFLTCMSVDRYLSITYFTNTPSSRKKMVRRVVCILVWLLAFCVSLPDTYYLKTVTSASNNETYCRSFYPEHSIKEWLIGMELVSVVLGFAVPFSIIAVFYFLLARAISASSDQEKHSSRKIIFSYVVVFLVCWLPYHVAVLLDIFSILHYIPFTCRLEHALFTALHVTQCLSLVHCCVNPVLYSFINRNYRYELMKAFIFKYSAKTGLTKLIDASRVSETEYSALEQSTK
As to the kind of experiment: competition with 125I I-TAC on MCF-7 cells.
Procedure: (§1) Small molecules were included in some assays, where indicated. In these assays the compound was added to the plate to the indicated concentration followed by the addition of radiolabeled chemokine. All assays were then incubated for 3 hrs at 4° C. with gentle agitation. Following incubation in all binding assays, reactions were aspirated onto PEI-treated GF/B glass filters (Packard) using a cell harvester (Packard) and washed twice (25 mM HEPES, 500 mM NaCl, 1 mM CaCl₂, 5 mM MgCl₂, adjusted to pH 7.1). Scintillant (MicroScint 10, Packard) was added to the wells, and the filters were counted in a Packard Topcount scintillation counter. Data were analyzed and plotted using Prism (GraphPad Prism version 3.0a for Macintosh, GraphPad Software).

Assay [5] deals with T2, CCX-CKR2 (RDC1), human. As to the kind of experiment: homologous competition with 125I I-TAC on MCF-7 cells, medium alone.
Procedure: as §1
For the assay “CXCR4, human”, the target named is B3. The assay can be described thus: dose response competition with 125I SDF-1α on CEM-NKr cells (CXCR4).
Procedure: Binding Analysis. […] Small molecules were included in some assays, where indicated. In these assays the compound was added to the plate to the indicated concentration followed by the addition of radiolabeled chemokine. All assays were then incubated for 3 hrs at 4° C. with gentle agitation. Following incubation in all binding assays, reactions were aspirated onto PEI-treated GF/B glass filters (Packard) using a cell harvester (Packard) and washed twice (25 mM HEPES, 500 mM NaCl, 1 mM CaCl₂, 5 mM MgCl₂, adjusted to pH 7.1). Scintillant (MicroScint 10, Packard) was added to the wells, and the filters were counted in a Packard Topcount scintillation counter.

B1: mouse I-TAC (ligand, UniProt Q9JHH5 22-100, looked up)
chain: FLMFKQGRCLCIGPGMKAVKMAEIEKASVIYPSNGCDKVEVIVTMKAHKRQRCLDPRSKQARLIMQAIEKKNFLRRQNM
notes: also called mI-TAC; I-TAC (mouse protein)
On to B1, for which the binding result in assay [1] is reported as “binds”.

Regarding B2, in the assay with human SDF-1α [2], the binding result is “binds”.

On to B3, for which the binding result with human SDF-1α [3] is “binds”.

B4: MIG (ligand, UniProt Q07325 23-125, looked up)
chain: TPVVRKGRCSCISTNQGTIHLQSLKDLKQFAPSPSCEKIEIIATLKNGVQTCLNPDSADVKELIKKWEKQVSQKKKQKNGKKHQKKKVLKVRKSQRSRQKKTT
notes: also called monokine induced by gamma interferon; CXCR3 ligand MIG
On to B4, for which the binding result in the assay with CCX-CKR2 (RDC1), human [4] was “no binding”.

B5: human I-TAC (ligand, UniProt O14625 22-94, looked up)
chain: FPMFKRGRCLCIGPGVKAVKVADIEKASIMYPSNNCDKIEVIITLKENKGQRCLNPKSKQARLIIKKVERKNF
notes: also called hI-TAC; CXCL11
B5 yielded an IC50 in the assay with CCX-CKR2 (RDC1), human [5] of 1 nM. Also, the binding result is given as “no binding” with CXCR4, human and “binds” in assay [1].

What is called IC50 is the concentration at which inhibition is half-maximal. A lower IC50 goes with greater potency.
